Data as given in paper PMC7136618, “Defective nucleotide-dependent assembly and membrane fusion in Mfn2 CMT2A variants improved by Bax” (Life Science Alliance, 2020).

How the values were obtained:
[1] = biological target: Mfn2^WT with a C-terminal 3×FLAG tag (UniProt Q80U63); assay: native gel or EMSA; BN-PAGE of untreated isolated mitochondria, lysed in 1% digitonin; 4–16% Bis-Tris native gel at 4°C; anti-FLAG blot
[2] = biological target: the molecule itself; assay: as above

Row | Molecule | stoichiometry N [1] | stoichiometry N [2]
1 | Mfn2^WT with a C-terminal 3×FLAG tag (from UniProt Q80U63 1-757) (natural protein) | 2 | 
2 | Mfn2^S378P with a C-terminal 3×FLAG tag (natural protein, UniProt Q80U63 1-757, looked up, Mitofusin 2 (Mfn2) with the CMT2A-associated substitution S378P; CMT2A-associated (patient) substitution; also called Mfn2-FLAG variant S378P; source: Mfn2-null MEFs, retroviral transduction, clonal population; isolated mitochondria, lysed; not shown: 3×FLAG, C-terminal, kept) MSLLFSRCNSIVTVKKDKRHMAEVNASPLKHFVTAKKKINGIFEQLGAYIQESASFLEDTHRNTELDPVTTEEQVLDVKGYLSKVRGISEVLARRHMKVAFFGRTSNGKSTVINAMLWDKVLPSGIGHTTNCFLRVGGTDGHEAFLLTEGSEEKKSVKTVNQLAHALHQDEQLHAGSMVSVMWPNSKCPLLKDDLVLMDSPGIDVTTELDSWIDKFCLDADVFVLVANSESTLMQTEKQFFHKVSERLSRPNIFILNNRWDASASEPEYMEEVRRQHMERCTSFLVDELGVVDRAQAGDRIFFVSAKEVLSARVQKAQGMPEGGGALAEGFQVRMFEFQNFERQFEECISQSAVKTKFEQHTVRAKQIAEAVRLIMDPLHIAAQEQRVYCLEMREERQDRLRFIDKQLELLAQDYKLRIKQITEEVERQVSTAMAEEIRRLSVLVDEYQMDFHPSPVVLKVYKNELHRHIEEGLGRNLSDRCSTAIASSLQTMQQDMIDGLKPLLPVSMRNQIDMLVPRQCFSLSYDLNCDKLCADFQEDIEFHFSLGWTMLVNRFLGPKNSRRALLGYSDQVQRPLPLTPANPSMPPLPQSSLTQEELMVSMVTGLASLTSRTSMGILVVGGVVWKAVGWRLIALSFGLYGLLYVYERLTWTTKAKERAFKRQFVEYASEKLQLIISYTGSNCSHQVQQELSGTFAHLCQQVDITRDNLEQEIAAMNKKVEALDSLQSRAKLLRNKAGWLDSELNMFTHQYLQPSR |  | 2
3 | Mfn2^Q386P with a C-terminal 3×FLAG tag (natural protein, UniProt Q80U63 1-757, looked up, Mitofusin 2 (Mfn2) with the CMT2A-associated substitution Q386P; CMT2A-associated (patient) substitution; also called Mfn2-FLAG variant Q386P; source: Mfn2-null MEFs, retroviral transduction, clonal population; isolated mitochondria, lysed; not shown: 3×FLAG, C-terminal, kept) MSLLFSRCNSIVTVKKDKRHMAEVNASPLKHFVTAKKKINGIFEQLGAYIQESASFLEDTHRNTELDPVTTEEQVLDVKGYLSKVRGISEVLARRHMKVAFFGRTSNGKSTVINAMLWDKVLPSGIGHTTNCFLRVGGTDGHEAFLLTEGSEEKKSVKTVNQLAHALHQDEQLHAGSMVSVMWPNSKCPLLKDDLVLMDSPGIDVTTELDSWIDKFCLDADVFVLVANSESTLMQTEKQFFHKVSERLSRPNIFILNNRWDASASEPEYMEEVRRQHMERCTSFLVDELGVVDRAQAGDRIFFVSAKEVLSARVQKAQGMPEGGGALAEGFQVRMFEFQNFERQFEECISQSAVKTKFEQHTVRAKQIAEAVRLIMDSLHIAAQEPRVYCLEMREERQDRLRFIDKQLELLAQDYKLRIKQITEEVERQVSTAMAEEIRRLSVLVDEYQMDFHPSPVVLKVYKNELHRHIEEGLGRNLSDRCSTAIASSLQTMQQDMIDGLKPLLPVSMRNQIDMLVPRQCFSLSYDLNCDKLCADFQEDIEFHFSLGWTMLVNRFLGPKNSRRALLGYSDQVQRPLPLTPANPSMPPLPQSSLTQEELMVSMVTGLASLTSRTSMGILVVGGVVWKAVGWRLIALSFGLYGLLYVYERLTWTTKAKERAFKRQFVEYASEKLQLIISYTGSNCSHQVQQELSGTFAHLCQQVDITRDNLEQEIAAMNKKVEALDSLQSRAKLLRNKAGWLDSELNMFTHQYLQPSR |  | 2
4 | Mfn2^A383V with a C-terminal 3×FLAG tag (natural protein, UniProt Q80U63 1-757, looked up, Mitofusin 2 (Mfn2) with the CMT2A-associated substitution A383V; CMT2A-associated (patient) substitution; also called Mfn2-FLAG variant A383V; source: Mfn2-null MEFs, retroviral transduction, clonal population; isolated mitochondria, lysed; not shown: 3×FLAG, C-terminal, kept) MSLLFSRCNSIVTVKKDKRHMAEVNASPLKHFVTAKKKINGIFEQLGAYIQESASFLEDTHRNTELDPVTTEEQVLDVKGYLSKVRGISEVLARRHMKVAFFGRTSNGKSTVINAMLWDKVLPSGIGHTTNCFLRVGGTDGHEAFLLTEGSEEKKSVKTVNQLAHALHQDEQLHAGSMVSVMWPNSKCPLLKDDLVLMDSPGIDVTTELDSWIDKFCLDADVFVLVANSESTLMQTEKQFFHKVSERLSRPNIFILNNRWDASASEPEYMEEVRRQHMERCTSFLVDELGVVDRAQAGDRIFFVSAKEVLSARVQKAQGMPEGGGALAEGFQVRMFEFQNFERQFEECISQSAVKTKFEQHTVRAKQIAEAVRLIMDSLHIAVQEQRVYCLEMREERQDRLRFIDKQLELLAQDYKLRIKQITEEVERQVSTAMAEEIRRLSVLVDEYQMDFHPSPVVLKVYKNELHRHIEEGLGRNLSDRCSTAIASSLQTMQQDMIDGLKPLLPVSMRNQIDMLVPRQCFSLSYDLNCDKLCADFQEDIEFHFSLGWTMLVNRFLGPKNSRRALLGYSDQVQRPLPLTPANPSMPPLPQSSLTQEELMVSMVTGLASLTSRTSMGILVVGGVVWKAVGWRLIALSFGLYGLLYVYERLTWTTKAKERAFKRQFVEYASEKLQLIISYTGSNCSHQVQQELSGTFAHLCQQVDITRDNLEQEIAAMNKKVEALDSLQSRAKLLRNKAGWLDSELNMFTHQYLQPSR |  | 2
5 | Mfn2^C390F with a C-terminal 3×FLAG tag (natural protein, UniProt Q80U63 1-757, looked up, Mitofusin 2 (Mfn2) with the CMT2A-associated substitution C390F; CMT2A-associated (patient) substitution; also called Mfn2-FLAG variant C390F; source: Mfn2-null MEFs, retroviral transduction, clonal population; isolated mitochondria, lysed; not shown: 3×FLAG, C-terminal, kept) MSLLFSRCNSIVTVKKDKRHMAEVNASPLKHFVTAKKKINGIFEQLGAYIQESASFLEDTHRNTELDPVTTEEQVLDVKGYLSKVRGISEVLARRHMKVAFFGRTSNGKSTVINAMLWDKVLPSGIGHTTNCFLRVGGTDGHEAFLLTEGSEEKKSVKTVNQLAHALHQDEQLHAGSMVSVMWPNSKCPLLKDDLVLMDSPGIDVTTELDSWIDKFCLDADVFVLVANSESTLMQTEKQFFHKVSERLSRPNIFILNNRWDASASEPEYMEEVRRQHMERCTSFLVDELGVVDRAQAGDRIFFVSAKEVLSARVQKAQGMPEGGGALAEGFQVRMFEFQNFERQFEECISQSAVKTKFEQHTVRAKQIAEAVRLIMDSLHIAAQEQRVYFLEMREERQDRLRFIDKQLELLAQDYKLRIKQITEEVERQVSTAMAEEIRRLSVLVDEYQMDFHPSPVVLKVYKNELHRHIEEGLGRNLSDRCSTAIASSLQTMQQDMIDGLKPLLPVSMRNQIDMLVPRQCFSLSYDLNCDKLCADFQEDIEFHFSLGWTMLVNRFLGPKNSRRALLGYSDQVQRPLPLTPANPSMPPLPQSSLTQEELMVSMVTGLASLTSRTSMGILVVGGVVWKAVGWRLIALSFGLYGLLYVYERLTWTTKAKERAFKRQFVEYASEKLQLIISYTGSNCSHQVQQELSGTFAHLCQQVDITRDNLEQEIAAMNKKVEALDSLQSRAKLLRNKAGWLDSELNMFTHQYLQPSR |  | 2
